This experiment concerns the target T1, GAL4bd-FtsA fusion (E. coli, UniProt P04386 1-147; P0ABH0 1-420).
T1 construct: also called pAS2-1-FtsA; SHp100
Briefly: yeast two-hybrid, GAL4 system, plates lacking histidine and AT.

B1: GAL4ad-FtsZ^D373G fusion (pGAD424) (other)
chain: MFEPMELTNDAVIKVIGVGGGGGNAVEHMVRERIEGVEFFAVNTDAQALRKTAVGQTIQIGSGITKGLGAGANPEVGRNAADEDRDALRAALEGADMVFIAAGMGGGTGTGAAPVVAEVAKDLGILTVAVVTKPFNFEGKKRMAFAEQGITELSKHVDSLITIPNDKLLKVLGRGISLLDAFGAANDVLKGAVQGIAELITRPGLMNVDFADVRTVMSEMGYAMMGSGVASGEDRAEEAAEMAISSPLLEDIDLSGARGVLVNITAGFDLRLDEFETVGNTIRAFASDNATVVIGTSLDPDMNDELRVTVVATGIGMDKRPEITLVTNKQVQQPVMDRYQQHGMAPLTQEQKPVAKVVNDNAPQTAKEPDYLGIPAFLRKQAD
notes: also called pGAD424-FtsZ^D373G; SHp201
In the case of B1, the binding result is given as “no binding”.

B2: GAL4ad-FtsZ^D373G,P375L fusion (pGAD424) (other)
chain: MFEPMELTNDAVIKVIGVGGGGGNAVEHMVRERIEGVEFFAVNTDAQALRKTAVGQTIQIGSGITKGLGAGANPEVGRNAADEDRDALRAALEGADMVFIAAGMGGGTGTGAAPVVAEVAKDLGILTVAVVTKPFNFEGKKRMAFAEQGITELSKHVDSLITIPNDKLLKVLGRGISLLDAFGAANDVLKGAVQGIAELITRPGLMNVDFADVRTVMSEMGYAMMGSGVASGEDRAEEAAEMAISSPLLEDIDLSGARGVLVNITAGFDLRLDEFETVGNTIRAFASDNATVVIGTSLDPDMNDELRVTVVATGIGMDKRPEITLVTNKQVQQPVMDRYQQHGMAPLTQEQKPVAKVVNDNAPQTAKEPDYLGILAFLRKQAD
notes: also called pGAD424-FtsZ^D373G,P375L; SHp203
In the case of B2, the binding result was “no binding”.

The values above are taken from patent US20030040043A1 (published 2003).
